The results in this text go back to patent publication US20220073617A1 (Five Prime, published 2022).

Assay [1] addresses T1, monovalent hVISTA-ECD (amino acids 32-193 of SEQ ID NO: 1 with a 7xHis tail) (human, UniProt Q9H7M9 33-193).
T1 construct: analyte of the SPR assays; also called huVISTA-His; hVISTA-His
Description: SPR 37C.

Assay [2] has as its target T2, cyno VISTA-ECD (His tag) (cynomolgus macaque, UniProt Q9H7M9 33-193 (human entry)).
T2 construct: also called cyVISTA-His
T2 chain: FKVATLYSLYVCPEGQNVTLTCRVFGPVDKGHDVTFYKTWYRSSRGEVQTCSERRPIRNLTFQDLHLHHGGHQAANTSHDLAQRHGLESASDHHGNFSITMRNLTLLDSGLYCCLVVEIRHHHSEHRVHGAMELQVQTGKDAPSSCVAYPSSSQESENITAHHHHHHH
Nature of the assay: SPR 37C.

For assay [3], the target named is T3, human VISTA-Fc (hVISTA extracellular domain, amino acids 33-194 of SEQ ID NO: 1, linked to an Fc domain) (human, UniProt Q9H7M9 33-194).
T3 construct: also called WT VISTA; hVISTAFc
T3 sequence: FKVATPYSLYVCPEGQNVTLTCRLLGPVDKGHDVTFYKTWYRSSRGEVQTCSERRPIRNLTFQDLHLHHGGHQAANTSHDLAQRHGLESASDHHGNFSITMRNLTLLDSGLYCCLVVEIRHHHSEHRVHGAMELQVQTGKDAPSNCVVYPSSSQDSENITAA
Nature of the assay: BLI. (In general: Biolayer interferometry detects binding as a change in optical thickness at a sensor tip.)

The target of assay [4] is T1, monovalent hVISTA-ECD (amino acids …). Description: SPR 37C pH 6.0.
Assay [5] addresses T2, cyno VISTA-ECD (His tag). Nature of the assay: SPR 37C pH 6.0.
The target of assay [6] is BSA (Calbiochem catalog #126593) (UniProt P02769 25-607). Nature of the assay: SPR 25C pH 6.0 and 7.4. On the procedure:
(§1) The binding specificity of the '029, '761 and '767 clones to VISTA and to other high pI proteins was evaluated by SPR at neutral and acidic pH using a Biacore® T100 instrument (GE Healthcare). Protein A (ThermoFisher Scientific catalog #21181) was diluted to 20 ug/ml in 10 mM sodium acetate pH 4.5 and immobilized onto flow cells of a CM3 biosensor following the manufacturer's amine coupling protocol (GE Healthcare), targeting 800 RU immobilization density of Protein A per flow cell. SPR experiments were conducted at 25° C. using PBST (137 mM sodium chloride, 2.7 mM potassium chloride, 10 mM phosphate buffer, 0.05% Tween 20) running buffer at pH 7.4 and 6.0. Antibodies (formatted as IgG1.3 antibodies) were diluted to 50 nM in PBST pH 7.4, and were captured across active biosensor flow cells at 5 ul/min for 60 seconds. […] Two 15 second injections of 10 mM glycine pH 1.5 were used to regenerate the Protein A capture surface between assay cycles. Reference flow cell and 0 nM blank-subtracted sensorgrams were inspected using Biacore® T200 Evaluation Software v.2.0. The results are shown in […]

Assay [7] addresses avidin (ThermoFisher Scientific catalog #21128) (UniProt P02701 25-152). Description: SPR 25C pH 6.0 and 7.4. On the procedure:
as §1

Assay [8] deals with T1, monovalent hVISTA-ECD (amino acids …). Description: SPR 37C pH 7.4.
Assay [9] addresses T2, cyno VISTA-ECD (His tag). Description: SPR 37C pH 7.4.

Chain of BSA (Calbiochem catalog #126593) (P02769 25-607 limits assumed): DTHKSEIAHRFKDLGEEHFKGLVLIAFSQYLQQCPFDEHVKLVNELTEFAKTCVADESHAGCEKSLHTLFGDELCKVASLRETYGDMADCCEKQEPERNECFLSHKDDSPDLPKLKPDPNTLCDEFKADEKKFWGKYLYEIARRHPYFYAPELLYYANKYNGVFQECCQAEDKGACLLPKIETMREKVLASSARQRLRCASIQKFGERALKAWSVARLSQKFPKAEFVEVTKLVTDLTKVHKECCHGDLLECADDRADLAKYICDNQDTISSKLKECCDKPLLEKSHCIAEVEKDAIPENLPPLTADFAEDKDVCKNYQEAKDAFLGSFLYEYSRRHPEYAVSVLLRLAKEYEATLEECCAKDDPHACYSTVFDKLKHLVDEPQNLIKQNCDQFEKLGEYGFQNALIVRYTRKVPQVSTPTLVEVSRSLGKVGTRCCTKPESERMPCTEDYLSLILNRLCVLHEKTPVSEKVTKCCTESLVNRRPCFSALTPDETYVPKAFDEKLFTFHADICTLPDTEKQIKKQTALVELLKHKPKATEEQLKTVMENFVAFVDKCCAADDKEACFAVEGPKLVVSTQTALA
Chain of avidin (ThermoFisher Scientific catalog #21128) (P02701 25-152 limits assumed): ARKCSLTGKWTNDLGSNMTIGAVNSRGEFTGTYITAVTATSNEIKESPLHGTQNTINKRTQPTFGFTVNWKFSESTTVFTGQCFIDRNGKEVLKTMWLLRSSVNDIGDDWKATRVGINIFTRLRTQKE

B1: P1-061029.IgG1.3 (antibody)
heavy: EVQLVESGGGLVQPGKSLRLSCAASGFTLDDYAMHWVRQAPGKGLEWVSGINWNSANIGYADSVKGRFTISRDNAKNSLYLQMNSLRTEDTALYYCAKVPGYSGGWIDAFDVWGQGTMVTVSSASTKGPSVFPLAPSSKSTSGGTAALGCLVKDYFPEPVTVSWNSGALTSGVHTFPAVLQSSGLYSLSSVVTVPSSSLGTQTYICNVNHKPSNTKVDKRVEPKSCDKTHTCPPCPAPEAEGAPSVFLFPPKPKDTLMISRTPEVTCVVVDVSHEDPEVKFNWYVDGVEVHNAKTKPREEQYNSTYRVVSVLTVLHQDWLNGKEYKCKVSNKALPAPIEKTISKAKGQPREPQVYTLPPSREEMTKNQVSLTCLVKGFYPSDIAVEWESNGQPENNYKTTPPVLDSDGSFFLYSKLTVDKSRWQQGNVFSCSVMHEALHNHYTQKSLSLSPG
light: not shown
notes: also called P1-061029 hIgG1.3f; parent
In general, Kd refers to a measure of binding affinity in units of concentration. The low end stands for tighter binding, the high end for weaker binding. In general, koff refers to the first-order rate constant of dissociation. As a reminder, the kon is the second-order rate constant of association. The low end stands for slow association, the high end for fast association. For B1, the “KD ratio (7.4/6)” value in assay [1] was found to be 9.1; in assay [2], 4.7. Also, the “kd ratio (7.4/6)” value in assay [1] and in [2] was 1.1 each time. Moreover, the binding result is “binds” in assay [3]; “no binding (tested: <=10 RU, 100-10 nM)” in assay [6]; “no binding (tested: <=10 RU, 100-10 nM)” in [7]. The Kd in assay [4] turned out to be 6.8 nM; in assay [5], 10 nM; in [8], 62 nM; in assay [9] it was 47 nM. The koff turned out to be 0.0066 s⁻¹ in assay [4], 0.0062 s⁻¹ in assay [5], 0.0075 s⁻¹ in assay [8] and 0.0067 s⁻¹ in assay [9]. For the same molecule, the kon was determined as 980000 M⁻¹ s⁻¹ in assay [4], 620000 M⁻¹ s⁻¹ in assay [5], 120000 M⁻¹ s⁻¹ in [8] and 140000 M⁻¹ s⁻¹ in [9].
